Assay [1] deals with SLC3A2, as used in the SPR measurement. The assay is described as follows: SPR, concentration gradient binding curves. (In SPR one partner is held on a chip, and binding of the other changes the refractive index at the surface.)
Assay [2] addresses transferrin receptor protein 1 (TFRC), as used in the SPR measurement. In words: SPR, concentration gradient binding curves.

Kd data for 1 substance are collected here from patent US20260243780A1.

In general, Kd refers to the free concentration of one partner at which half of the binding sites on the other are occupied at equilibrium, for simple one-to-one binding.

“Cf48 small peptide (C4orf48), as used in the SPR measurement”: the Kd in assay [1] was 35.2 nM; in assay [2], 571 nM.
